Test results taken from the Human Domainome abundance scans (Beltran et al. 2025).
± gives the uncertainty stated by the source.

B1: Kinesin-like protein KIF16B, residues 1213 to 1273; numbered along this chain, Q96L93 (parent)
chain: ETWTVFRRYSRFREMHKTLKLKYAELAALEFPPKKLFGNKDERVIAERRSHLEKYLRDFFS

Variants of: B1
Experiment: abundance fitness (aPCA) (normalised: wild type 0, dead -1); higher = more abundant; growth selection in yeast, the domain comes from the species named
Conditions: Homo sapiens

Variant	abundance fitness
ETWTVFRRYSRFREMHKTLKLDYAELAALEFPPKKLFGNKDERVIAERRSHLEKYLRDFFS [K22D]	-0.907 ± 0.37
ETWTVFRRYSRFREMHKTLKLIYAELAALEFPPKKLFGNKDERVIAERRSHLEKYLRDFFS [K22I]	0.069 ± 0.095
ETWTVFRRYSRFREMHKTLKLEYAELAALEFPPKKLFGNKDERVIAERRSHLEKYLRDFFS [K22E]	-0.77 ± 0.3
ETWTVFRRYSRFREMHKTLKLCYAELAALEFPPKKLFGNKDERVIAERRSHLEKYLRDFFS [K22C]	-0.222 ± 0.12
ETWTVFRRYSRFREMHKTLKLAYAELAALEFPPKKLFGNKDERVIAERRSHLEKYLRDFFS [K22A]	-0.168 ± 0.09
ETWTVFRRYSRFREMHKTLKLGYAELAALEFPPKKLFGNKDERVIAERRSHLEKYLRDFFS [K22G]	-0.454 ± 0.072
ETWTVFRRYSRFREMHTTLKLKYAELAALEFPPKKLFGNKDERVIAERRSHLEKYLRDFFS [K17T]	-0.489 ± 0.14
ETWTVFRRYSRFREMHLTLKLKYAELAALEFPPKKLFGNKDERVIAERRSHLEKYLRDFFS [K17L]	-1 ± 0.22
ETWTVFRRYSRFREMHVTLKLKYAELAALEFPPKKLFGNKDERVIAERRSHLEKYLRDFFS [K17V]	-0.225 ± 0.13
ETWTVFRRYSRFREMHFTLKLKYAELAALEFPPKKLFGNKDERVIAERRSHLEKYLRDFFS [K17F]	-0.685 ± 0.27
ETWTVFRRYSRFREMHWTLKLKYAELAALEFPPKKLFGNKDERVIAERRSHLEKYLRDFFS [K17W]	-0.783 ± 0.29
ETWTVFRRYSRFREMHATLKLKYAELAALEFPPKKLFGNKDERVIAERRSHLEKYLRDFFS [K17A]	-0.325 ± 0.13
ETWTVFRRYSRFREMHCTLKLKYAELAALEFPPKKLFGNKDERVIAERRSHLEKYLRDFFS [K17C]	-0.483 ± 0.16
ETWTVFRRYSRFREMHMTLKLKYAELAALEFPPKKLFGNKDERVIAERRSHLEKYLRDFFS [K17M]	-0.343 ± 0.1
ETWTVFRRYSRFREMHETLKLKYAELAALEFPPKKLFGNKDERVIAERRSHLEKYLRDFFS [K17E]	-0.311 ± 0.095
ETWTVFRRYSRFREMHYTLKLKYAELAALEFPPKKLFGNKDERVIAERRSHLEKYLRDFFS [K17Y]	-0.607 ± 0.13
ETWTVFRRYSRFREMHRTLKLKYAELAALEFPPKKLFGNKDERVIAERRSHLEKYLRDFFS [K17R]	-0.199 ± 0.057
ETWTVFRRYSRFREMHQTLKLKYAELAALEFPPKKLFGNKDERVIAERRSHLEKYLRDFFS [K17Q]	-0.452 ± 0.12
ETWTVFRRYSRFREMHKMLKLKYAELAALEFPPKKLFGNKDERVIAERRSHLEKYLRDFFS [T18M]	-0.06 ± 0.067
ETWTVFRRYSRFREMHKCLKLKYAELAALEFPPKKLFGNKDERVIAERRSHLEKYLRDFFS [T18C]	-0.143 ± 0.1
ETWTVFRRYSRFREMHKSLKLKYAELAALEFPPKKLFGNKDERVIAERRSHLEKYLRDFFS [T18S]	-0.133 ± 0.076
ETWTVFRRYSRFREMHKRLKLKYAELAALEFPPKKLFGNKDERVIAERRSHLEKYLRDFFS [T18R]	-0.222 ± 0.086

Variant	abundance fitness
ETWTVFRRYSRFREMHKNLKLKYAELAALEFPPKKLFGNKDERVIAERRSHLEKYLRDFFS [T18N]	-0.514 ± 0.23
ETWTVFRRYSRFREMHKLLKLKYAELAALEFPPKKLFGNKDERVIAERRSHLEKYLRDFFS [T18L]	-0.247 ± 0.076
ETWTVFRRYSRFREMHKHLKLKYAELAALEFPPKKLFGNKDERVIAERRSHLEKYLRDFFS [T18H]	-0.463 ± 0.37
ETWTVFRRYSRFREMHKALKLKYAELAALEFPPKKLFGNKDERVIAERRSHLEKYLRDFFS [T18A]	0.176 ± 0.087
ETWTVFRRYSRFREMHKYLKLKYAELAALEFPPKKLFGNKDERVIAERRSHLEKYLRDFFS [T18Y]	0.508 ± 0.29
ETWTVFRRYSRFREMHKVLKLKYAELAALEFPPKKLFGNKDERVIAERRSHLEKYLRDFFS [T18V]	-0.038 ± 0.1
ETWTVFRRYSRFREMHKGLKLKYAELAALEFPPKKLFGNKDERVIAERRSHLEKYLRDFFS [T18G]	-0.237 ± 0.077
ETWTVFRRYSRFREMHKKLKLKYAELAALEFPPKKLFGNKDERVIAERRSHLEKYLRDFFS [T18K]	-0.056 ± 0.13
ETWTVFRRYSRFREMHKWLKLKYAELAALEFPPKKLFGNKDERVIAERRSHLEKYLRDFFS [T18W]	0.472 ± 0.073
ETWTVFRRYSRFREMHKELKLKYAELAALEFPPKKLFGNKDERVIAERRSHLEKYLRDFFS [T18E]	-0.223 ± 0.072
ETWTVFRRYSRFREMHKDLKLKYAELAALEFPPKKLFGNKDERVIAERRSHLEKYLRDFFS [T18D]	-0.806 ± 0.16
ETWTVFRRYSRFREMTKTLKLKYAELAALEFPPKKLFGNKDERVIAERRSHLEKYLRDFFS [H16T]	0.144 ± 0.058
ETWTVFRRYSRFREMYKTLKLKYAELAALEFPPKKLFGNKDERVIAERRSHLEKYLRDFFS [H16Y]	0.167 ± 0.089
ETWTVFRRYSRFREMQKTLKLKYAELAALEFPPKKLFGNKDERVIAERRSHLEKYLRDFFS [H16Q]	-0.194 ± 0.083
ETWTVFRRYSRFREMRKTLKLKYAELAALEFPPKKLFGNKDERVIAERRSHLEKYLRDFFS [H16R]	-0.073 ± 0.046
ETWTVFRRYSRFREMSKTLKLKYAELAALEFPPKKLFGNKDERVIAERRSHLEKYLRDFFS [H16S]	-0.083 ± 0.058
ETWTVFRRYSRFREMVKTLKLKYAELAALEFPPKKLFGNKDERVIAERRSHLEKYLRDFFS [H16V]	0.342 ± 0.053
ETWTVFRRYSRFREMWKTLKLKYAELAALEFPPKKLFGNKDERVIAERRSHLEKYLRDFFS [H16W]	0.534 ± 0.051
ETWTVFRRYSRFREMHKTLCLKYAELAALEFPPKKLFGNKDERVIAERRSHLEKYLRDFFS [K20C]	-0.574 ± 0.27
ETWTVFRRYSRFREMHKTLELKYAELAALEFPPKKLFGNKDERVIAERRSHLEKYLRDFFS [K20E]	-1.02 ± 0.19
ETWTVFRRYSRFREMHKTLRLKYAELAALEFPPKKLFGNKDERVIAERRSHLEKYLRDFFS [K20R]	-0.211 ± 0.059
ETWTVFRRYSRFREMHKTLVLKYAELAALEFPPKKLFGNKDERVIAERRSHLEKYLRDFFS [K20V]	-0.853 ± 0.096

Variant	abundance fitness
ETWTVFRRYSRFREMHKTLLLKYAELAALEFPPKKLFGNKDERVIAERRSHLEKYLRDFFS [K20L]	-0.671 ± 0.097
ETWTVFRRYSRFREMHKTLDLKYAELAALEFPPKKLFGNKDERVIAERRSHLEKYLRDFFS [K20D]	-0.945 ± 0.24
ETWTVFRRYSRFREMHKTLNLKYAELAALEFPPKKLFGNKDERVIAERRSHLEKYLRDFFS [K20N]	-1.01 ± 0.24
ETWTVFRRYSRFREMHKTLPLKYAELAALEFPPKKLFGNKDERVIAERRSHLEKYLRDFFS [K20P]	-0.904 ± 0.21
ETWTVFRRYSRFREMHKTLHLKYAELAALEFPPKKLFGNKDERVIAERRSHLEKYLRDFFS [K20H]	-0.421 ± 0.41
ETWTVFRRYSRFREMHKTLYLKYAELAALEFPPKKLFGNKDERVIAERRSHLEKYLRDFFS [K20Y]	-1 ± 0.26
ETWTVFRRYSRFREMHKTLMLKYAELAALEFPPKKLFGNKDERVIAERRSHLEKYLRDFFS [K20M]	-0.746 ± 0.15
ETWTVFRRYSRFREMHKTLQLKYAELAALEFPPKKLFGNKDERVIAERRSHLEKYLRDFFS [K20Q]	-0.411 ± 0.17
ETWTVFRRYSRFREMHKTLWLKYAELAALEFPPKKLFGNKDERVIAERRSHLEKYLRDFFS [K20W]	-0.734 ± 0.18
ETWTVFRRYSRFREMHKTLALKYAELAALEFPPKKLFGNKDERVIAERRSHLEKYLRDFFS [K20A]	-0.632 ± 0.1
ETWTVFRRYSRFREMHKTLGLKYAELAALEFPPKKLFGNKDERVIAERRSHLEKYLRDFFS [K20G]	-0.676 ± 0.11
ETWTVFRRYSRFREMHKTLKVKYAELAALEFPPKKLFGNKDERVIAERRSHLEKYLRDFFS [L21V]	0.114 ± 0.054
ETWTVFRRYSRFREMHKTLKKKYAELAALEFPPKKLFGNKDERVIAERRSHLEKYLRDFFS [L21K]	0.339 ± 0.077
ETWTVFRRYSRFREMHKTLKFKYAELAALEFPPKKLFGNKDERVIAERRSHLEKYLRDFFS [L21F]	-0.559 ± 0.19
ETWTVFRRYSRFREMHKTLKRKYAELAALEFPPKKLFGNKDERVIAERRSHLEKYLRDFFS [L21R]	0.163 ± 0.056
ETWTVFRRYSRFREMHKTLKTKYAELAALEFPPKKLFGNKDERVIAERRSHLEKYLRDFFS [L21T]	-0.079 ± 0.13
ETWTVFRRYSRFREMHKTLKAKYAELAALEFPPKKLFGNKDERVIAERRSHLEKYLRDFFS [L21A]	0.356 ± 0.075
ETWTVFRRYSRFREMHKTLKMKYAELAALEFPPKKLFGNKDERVIAERRSHLEKYLRDFFS [L21M]	0.147 ± 0.096
ETWTVFRRYSRFREMHKTLKCKYAELAALEFPPKKLFGNKDERVIAERRSHLEKYLRDFFS [L21C]	-0.131 ± 0.077
ETWTVFRRYSRFREMHKTLKEKYAELAALEFPPKKLFGNKDERVIAERRSHLEKYLRDFFS [L21E]	0.352 ± 0.062
ETWTVFRRYSRFREMHKTLKYKYAELAALEFPPKKLFGNKDERVIAERRSHLEKYLRDFFS [L21Y]	-0.477 ± 0.18
ETWTVFRRYSRFREMHKTLKIKYAELAALEFPPKKLFGNKDERVIAERRSHLEKYLRDFFS [L21I]	-0.379 ± 0.27

Variant	abundance fitness
ETWTVFRRYSRFREMHKTLKHKYAELAALEFPPKKLFGNKDERVIAERRSHLEKYLRDFFS [L21H]	0.112 ± 0.094
ETWTVFRRYSRFREMHKTLKDKYAELAALEFPPKKLFGNKDERVIAERRSHLEKYLRDFFS [L21D]	0.101 ± 0.11
ETWTVFRRYSRFREMHKTLKQKYAELAALEFPPKKLFGNKDERVIAERRSHLEKYLRDFFS [L21Q]	0.159 ± 0.16
ETWTVFRRYSRFREMHKTLKNKYAELAALEFPPKKLFGNKDERVIAERRSHLEKYLRDFFS [L21N]	-0.289 ± 0.25
ETWTVFRRYSRFREMHKTLKGKYAELAALEFPPKKLFGNKDERVIAERRSHLEKYLRDFFS [L21G]	-0.028 ± 0.031
ETWTVFRRYSRFREMHKTLKSKYAELAALEFPPKKLFGNKDERVIAERRSHLEKYLRDFFS [L21S]	0.254 ± 0.06
ETWTVFRRYSRFREMHKTDKLKYAELAALEFPPKKLFGNKDERVIAERRSHLEKYLRDFFS [L19D]	-1.13 ± 0.34
ETWTVFRRYSRFREMHKTFKLKYAELAALEFPPKKLFGNKDERVIAERRSHLEKYLRDFFS [L19F]	-0.146 ± 0.11
ETWTVFRRYSRFREMHKTMKLKYAELAALEFPPKKLFGNKDERVIAERRSHLEKYLRDFFS [L19M]	0.144 ± 0.095
ETWTVFRRYSRFREMHKTKKLKYAELAALEFPPKKLFGNKDERVIAERRSHLEKYLRDFFS [L19K]	-0.999 ± 0.16
ETWTVFRRYSRFREMHKTSKLKYAELAALEFPPKKLFGNKDERVIAERRSHLEKYLRDFFS [L19S]	-1.11 ± 0.19
ETWTVFRRYSRFREMHKTNKLKYAELAALEFPPKKLFGNKDERVIAERRSHLEKYLRDFFS [L19N]	-0.658 ± 0.36
ETWTVFRRYSRFREMHKTPKLKYAELAALEFPPKKLFGNKDERVIAERRSHLEKYLRDFFS [L19P]	-1.02 ± 0.24
ETWTVFRRYSRFREMHKTAKLKYAELAALEFPPKKLFGNKDERVIAERRSHLEKYLRDFFS [L19A]	-0.737 ± 0.29
ETWTVFRRYSRFREMHKTTKLKYAELAALEFPPKKLFGNKDERVIAERRSHLEKYLRDFFS [L19T]	-0.844 ± 0.19
ETWTVFRRYSRFREMHKTVKLKYAELAALEFPPKKLFGNKDERVIAERRSHLEKYLRDFFS [L19V]	-0.656 ± 0.1
ETWTVFRRYSRFREMHKTQKLKYAELAALEFPPKKLFGNKDERVIAERRSHLEKYLRDFFS [L19Q]	-0.991 ± 0.24
ETWTVFRRYSRFREMHKTCKLKYAELAALEFPPKKLFGNKDERVIAERRSHLEKYLRDFFS [L19C]	-0.603 ± 0.22
ETWTVFRRYSRFREMHKTEKLKYAELAALEFPPKKLFGNKDERVIAERRSHLEKYLRDFFS [L19E]	-0.917 ± 0.23
ETWTVFRRYSRFREMHKTGKLKYAELAALEFPPKKLFGNKDERVIAERRSHLEKYLRDFFS [L19G]	-0.977 ± 0.14
ETWTVFRRYSRFREMHKTRKLKYAELAALEFPPKKLFGNKDERVIAERRSHLEKYLRDFFS [L19R]	-1.07 ± 0.13
